The target in the assay is insulin receptor extracellular domain, short isoform (IR-A). The assay is described as follows: SPR.

As for “insulin (from UniProt P01308 25-54; P01308 90-110) (ligand)”, the Kd (commonly the free concentration of one partner at which half of the binding sites on the other are occupied at equilibrium, for simple one-to-one binding) is above 122 nM.

The values are drawn from article PMC5985231.
